# Experimental data taken from paper PMC3887213.
# Changes are numbered by the printed parent chain.
# B1: LRRK2 RocCOR tandem domain (LexA-BD bait, wild type) [human] / TUBB4 C terminus (Phe-317 to Ala-444), GAL4-AD prey [human] (parent)
# chain 1: KAVPYNRMKLMIVGNTGSGKTTLLQQLMKTKKSDLGMQSATVGIDVKDWPIQIRDKRKRDLVLNVWDFAGREEFYSTHPHFMTQRALYLAVYDLSKGQAEVDAMKPWLFNIKARASSSPVILVGTHLDVSDEKQRKACMSKITKELLNKRGFPAIRDYHFVNATEESDALAKLRKTIINESLNFKIRDQLVVGQLIPDCYVELEKIILSERKNVPIEFPVIDRKRLLQLVRENQLQLDENELPHAVHFLNESGVLLHFQDPALQLSDLYFVEPKWLCKIMAQILTVKVEGCPKHPKGIISRRDVEKFLSKKRKFPKNYMSQYFKLLEKFQIALPIGEEYLLVPSSLSDHRPVIELPHCENSEIIIRLYEMPYFPMGFWSRLINRLLEISPYMLSGRERALRPNRMYWRQGIYL
# chain 2: FRGRMSMKEVDEQMLSVQSKNSSYFVEWIPNNVKTAVCDIPPRGLKMAATFIGNSTAIQELFKRISEQFTAMFRRKAFLHWYTGEGMDEMEFTEAESNMNDLVSEYQQYQDATAEEGEFEEEAEEEVA
# B2: LRRK2 RocCOR tandem domain (LexA-BD bait, wild type) [human] / TUBB C terminus (Phe-317 to the stop codon), GAL4-AD prey [human] (parent)
# chain 1: B1 chain 1
# chain 2: B1 chain 2 with S16N, S19N, A49V, G117E, F119D, E120F, E121G, A123E, E124A, V127E
# Variants of: B1
# Experiment: quantitative yeast two-hybrid (Q-YTH)
# Details: with TUBB4 C terminus (Phe-317 to Ala-444), n = 5, read off a plot
row,Variant,percent of parent
1,chain 1 KAVPYNRMKLMIVGNAGSGKTTLLQQLMKTKKSDLGMQSATVGIDVKDWPIQIRDKRKRDLVLNVWDFAGREEFYSTHPHFMTQRALYLAVYDLSKGQAEVDAMKPWLFNIKARASSSPVILVGTHLDVSDEKQRKACMSKITKELLNKRGFPAIRDYHFVNATEESDALAKLRKTIINESLNFKIRDQLVVGQLIPDCYVELEKIILSERKNVPIEFPVIDRKRLLQLVRENQLQLDENELPHAVHFLNESGVLLHFQDPALQLSDLYFVEPKWLCKIMAQILTVKVEGCPKHPKGIISRRDVEKFLSKKRKFPKNYMSQYFKLLEKFQIALPIGEEYLLVPSSLSDHRPVIELPHCENSEIIIRLYEMPYFPMGFWSRLINRLLEISPYMLSGRERALRPNRMYWRQGIYL [chain 1 T16A],115%
2,chain 1 KAVPYNRMKLMIVGNDGSGKTTLLQQLMKTKKSDLGMQSATVGIDVKDWPIQIRDKRKRDLVLNVWDFAGREEFYSTHPHFMTQRALYLAVYDLSKGQAEVDAMKPWLFNIKARASSSPVILVGTHLDVSDEKQRKACMSKITKELLNKRGFPAIRDYHFVNATEESDALAKLRKTIINESLNFKIRDQLVVGQLIPDCYVELEKIILSERKNVPIEFPVIDRKRLLQLVRENQLQLDENELPHAVHFLNESGVLLHFQDPALQLSDLYFVEPKWLCKIMAQILTVKVEGCPKHPKGIISRRDVEKFLSKKRKFPKNYMSQYFKLLEKFQIALPIGEEYLLVPSSLSDHRPVIELPHCENSEIIIRLYEMPYFPMGFWSRLINRLLEISPYMLSGRERALRPNRMYWRQGIYL [chain 1 T16D],62%
3,chain 1 KAVPYNRMKLMIVGNTGSGKTTLLQQLMKTKKSDLGMQSATVGIDVKDWPIQIRDKRKRDLVLNVWDFAGREEFYSTHPHFMTQRALYLAVYDLSKGQAEVDAMKPWLFNIKARASSSPVILVGTHLDVSDEKQRKACMSKITKELLNKRGFPAIRDYHFVNAAEESDALAKLRKTIINESLNFKIRDQLVVGQLIPDCYVELEKIILSERKNVPIEFPVIDRKRLLQLVRENQLQLDENELPHAVHFLNESGVLLHFQDPALQLSDLYFVEPKWLCKIMAQILTVKVEGCPKHPKGIISRRDVEKFLSKKRKFPKNYMSQYFKLLEKFQIALPIGEEYLLVPSSLSDHRPVIELPHCENSEIIIRLYEMPYFPMGFWSRLINRLLEISPYMLSGRERALRPNRMYWRQGIYL [chain 1 T164A],86%

# Variants of: B2
# Experiment: quantitative yeast two-hybrid (Q-YTH)
# Details: with TUBB C terminus (Phe-317 to the stop codon), n = 5, read off a plot
row,percent of parent,Variant
1,97%,chain 1 KAVPYNRMKLMIVGNTGSGKTTLLQQLMKTKKSDLGMQSATVGIDVKDWPIQIRDKRKRDLVLNVWDFAGREEFYSTHPHFMTQRALYLAVYDLSKGQAEVDAMKPWLFNIKARASSSPVILVGTHLDVSDEKQRKACMSKITKELLNKRGFPAIRDYHFVNAAEESDALAKLRKTIINESLNFKIRDQLVVGQLIPDCYVELEKIILSERKNVPIEFPVIDRKRLLQLVRENQLQLDENELPHAVHFLNESGVLLHFQDPALQLSDLYFVEPKWLCKIMAQILTVKVEGCPKHPKGIISRRDVEKFLSKKRKFPKNYMSQYFKLLEKFQIALPIGEEYLLVPSSLSDHRPVIELPHCENSEIIIRLYEMPYFPMGFWSRLINRLLEISPYMLSGRERALRPNRMYWRQGIYL [chain 1 T164A]
2,35%,chain 1 KAVPYNRMKLMIVGNTGSGKTTLLQQLMKTKKSDLGMQSATVGIDVKDWPIQIRDKRKRDLVLNVWDFAGREEFYSTHPHFMTQRALYLAVYDLSKGQAEVDAMKPWLFNIKARASSSPVILVGTHLDVSDEKQRKACMSKITKELLNKRGFPAIRDYHFVNADEESDALAKLRKTIINESLNFKIRDQLVVGQLIPDCYVELEKIILSERKNVPIEFPVIDRKRLLQLVRENQLQLDENELPHAVHFLNESGVLLHFQDPALQLSDLYFVEPKWLCKIMAQILTVKVEGCPKHPKGIISRRDVEKFLSKKRKFPKNYMSQYFKLLEKFQIALPIGEEYLLVPSSLSDHRPVIELPHCENSEIIIRLYEMPYFPMGFWSRLINRLLEISPYMLSGRERALRPNRMYWRQGIYL [chain 1 T164D]

# Continued, variant first:
row,Variant,percent of parent
1,chain 1 KAVPYNRMKLMIVGNAGSGKTTLLQQLMKTKKSDLGMQSATVGIDVKDWPIQIRDKRKRDLVLNVWDFAGREEFYSTHPHFMTQRALYLAVYDLSKGQAEVDAMKPWLFNIKARASSSPVILVGTHLDVSDEKQRKACMSKITKELLNKRGFPAIRDYHFVNATEESDALAKLRKTIINESLNFKIRDQLVVGQLIPDCYVELEKIILSERKNVPIEFPVIDRKRLLQLVRENQLQLDENELPHAVHFLNESGVLLHFQDPALQLSDLYFVEPKWLCKIMAQILTVKVEGCPKHPKGIISRRDVEKFLSKKRKFPKNYMSQYFKLLEKFQIALPIGEEYLLVPSSLSDHRPVIELPHCENSEIIIRLYEMPYFPMGFWSRLINRLLEISPYMLSGRERALRPNRMYWRQGIYL [chain 1 T16A],130%
2,chain 1 KAVPYNRMKLMIVGNDGSGKTTLLQQLMKTKKSDLGMQSATVGIDVKDWPIQIRDKRKRDLVLNVWDFAGREEFYSTHPHFMTQRALYLAVYDLSKGQAEVDAMKPWLFNIKARASSSPVILVGTHLDVSDEKQRKACMSKITKELLNKRGFPAIRDYHFVNATEESDALAKLRKTIINESLNFKIRDQLVVGQLIPDCYVELEKIILSERKNVPIEFPVIDRKRLLQLVRENQLQLDENELPHAVHFLNESGVLLHFQDPALQLSDLYFVEPKWLCKIMAQILTVKVEGCPKHPKGIISRRDVEKFLSKKRKFPKNYMSQYFKLLEKFQIALPIGEEYLLVPSSLSDHRPVIELPHCENSEIIIRLYEMPYFPMGFWSRLINRLLEISPYMLSGRERALRPNRMYWRQGIYL [chain 1 T16D],58%
